Assay results from the Immune Epitope Database (IEDB).

Legend:
[1] = target: HLA-A*68:02; test: IEDB peptide-MHC binding, purified MHC/competitive/radioactivity; filed as Kd, often an IC50 or EC50 that approximates it; ≥ and ≤ were set here for values at or beyond the usual limits of such assays; details: source organism: Homo sapiens
[2] = target: HLA-A*24:02; test: IEDB peptide-MHC binding, purified MHC/competitive/fluorescence; ≥ and ≤ were set here for values at or beyond the usual limits of such assays
[3] = target: HLA-A*01:01; test: IEDB peptide-MHC binding, purified MHC/competitive/radioactivity; filed as Kd, often an IC50 or EC50 that approximates it; ≥ and ≤ were set here for values at or beyond the usual limits of such assays
[4] = target: HLA-A*23:01; test: as above
[5] = target: HLA-A*24:02; test: as above
[6] = target: HLA-A*26:01; test: as above
[7] = target: HLA-A*29:02; test: as above
[8] = target: HLA-A*30:02; test: as above
[9] = target: HLA-B*44:02; test: as above
[10] = target: HLA-B*44:03; test: as above
[11] = target: HLA-B*07:02; test: as above
[12] = target: HLA-B*15:01; test: as above
[13] = target: HLA-B*40:01; test: as above
[14] = target: HLA-B*51:01; test: as above
[15] = target: HLA-A*02:01; test: IEDB peptide-MHC binding, purified MHC/competitive/fluorescence; ≥ and ≤ were set here for values at or beyond the usual limits of such assays; details: source organism: Vaccinia virus
[16] = target: HLA-A*03:01; test: IEDB peptide-MHC binding, purified MHC/competitive/radioactivity; filed as Kd, often an IC50 or EC50 that approximates it; ≥ and ≤ were set here for values at or beyond the usual limits of such assays; details: source organism: Triticum aestivum
[17] = target: HLA-A*11:01; test: as above; details: source organism: Triticum aestivum
[18] = target: HLA-A*31:01; test: as above; details: source organism: Triticum aestivum
[19] = target: HLA-A*33:01; test: as above; details: source organism: Triticum aestivum
[20] = target: HLA-A*68:01; test: as above; details: source organism: Triticum aestivum
[21] = source organism: Sudan ebolavirus
[22] = source organism: SARS coronavirus Tor2
[23] = source organism: Mammarenavirus brazilense
[24] = source organism: Dengue virus 3 Martinique/1243/1999
[25] = source organism: Mammarenavirus juninense
[26] = source organism: Dengue virus 1 Brazil/97-11/1997
[27] = source organism: Dengue virus 2 Jamaica/1409/1983
[28] = source organism: Dengue virus 4 Philippines/H241/1956
[29] = source organism: Dengue virus 1 Singapore/S275/1990
[30] = source organism: Zaire ebolavirus
[31] = source organism: Vaccinia virus
[32] = source organism: Mammarenavirus lassaense
[33] = source organism: Triticum aestivum
[34] = source organism: Lymphocytic choriomeningitis virus (strain Armstrong)
[35] = source organism: Mammarenavirus whitewaterense

With NLEKQIATL as the sequence, how does the Kd [1] read?
The Kd was at least 26.5 µM.

For NRKAIDFLL, which IC50 [2, 21] is on record?
Its IC50 is at least 72.4 µM.

How did the Kd [3, 22] turn out when NYMPYVFTLL was run?
The Kd was at least 40.5 µM.

What about the Kd [4, 22] of the same sequence?
Its Kd is 0.00111 µM.

What about the Kd [5, 22] of the same sequence?
Its Kd is 0.00103 µM.

And the Kd [6, 22]?
Its Kd is at least 69.7 µM.

And the Kd [7, 22]?
Its Kd is 0.128 µM.

What about the Kd [8, 22] of the same sequence?
Its Kd is 2.55 µM.

For PKAQREIFS, which IC50 ([2]; source organism: Variola virus) is on record?
Its IC50 is 30.1 µM.

For PYLKATKQI, which Kd [4, 23] is on record?
Its Kd is 0.131 µM.

What about the Kd [5, 23] of the same sequence?
The Kd was 0.564 µM.

And the Kd [7, 23]?
The Kd was at least 78.9 µM.

With QTWMSAEGAW as the sequence, how does the Kd [9, 24] read?
Its Kd is 11.9 µM.

Which results are given for QWFFDLPLPW?
Kd [4, 24]: 0.0147 µM; Kd [5, 24]: 0.0748 µM; Kd [10, 24]: 2.64 µM

How did the Kd [3, 22] turn out when QWSLFFFVY was run?
Its Kd is 8.06 µM.

And the Kd [4, 22]?
Its Kd is at least 77.8 µM.

And the Kd [5, 22]?
Its Kd is at least 44.4 µM.

What about the Kd [6, 22] of the same sequence?
Its Kd is 17.6 µM.

And the Kd [7, 22]?
Its Kd is 0.0134 µM.

What about the Kd [8, 22] of the same sequence?
Its Kd is 1.37 µM.

Which results are given for RCWLIKNNSY?
Kd [3, 25]: ≥ 30.6 µM; Kd [4, 25]: ≥ 70 µM; Kd [5, 25]: ≥ 70.3 µM; Kd [6, 25]: ≥ 69.7 µM; Kd [7, 25]: ≥ 29.1 µM; Kd [8, 25]: 0.00991 µM

How did the Kd [11, 26] turn out when RPGYFTQTA was run?
The Kd was 0.00478 µM.

Which results are given for RQMEGEGVL?
Kd [12, 24]: 0.0188 µM; Kd [13, 24]: 0.0435 µM

RSNAALGAIF was tested. Which Kd [8, 27] did it give?
Its Kd is 3.42 µM.

And the Kd [11, 27]?
The Kd was 0.184 µM.

And the Kd [12, 27]?
The Kd was 0.0411 µM.

SEAVNDSRF was tested. Which Kd [9, 28] did it give?
The Kd was 0.0179 µM.

What about the Kd [10, 28] of the same sequence?
The Kd was 0.0666 µM.

Which results are given for SEMIIPKIYG?
Kd [9, 29]: 0.00953 µM; Kd [10, 29]: 0.0188 µM

How did the IC50 ([2]; source organism: Vaccinia virus Copenhagen) turn out when SPMLYQLLE was run?
The IC50 was 64.6 µM.

SPSVEVKLPD was tested. Which Kd [11, 28] did it give?
Its Kd is 0.205 µM.

What does the source list for SYSLFDMSKF?
Kd [3, 22]: ≥ 25.1 µM; Kd [4, 22]: 0.0497 µM; Kd [6, 22]: 6.12 µM; Kd [7, 22]: 0.677 µM; Kd [8, 22]: 0.77 µM

For SYYATSYLE, which IC50 [2, 21] is on record?
The IC50 was 4.36 µM.

With TEMGRLPTF as the sequence, how does the Kd [9, 27] read?
The Kd was 0.01 µM.

And the Kd [10, 27]?
The Kd was 0.024 µM.

For TFSIPLGVI, which IC50 [2, 30] is on record?
The IC50 was 0.0849 µM.

How did the IC50 [2, 30] turn out when TKKNLTRKI was run?
The IC50 was at least 155 µM.

How did the Kd [11, 28] turn out when TPEAKNSTFL was run?
Its Kd is 1.37 µM.

Which Kd [11, 26] does the source give for TPEGEVGAIA here?
Its Kd is 14.7 µM.

Which Kd ([11]; source organism: Dengue virus 3 Singapore/8120/1995) does the source give for TPKGTVMDII here?
The Kd was 0.608 µM.

How did the Kd [11, 24] turn out when TPQASTTEAI was run?
Its Kd is 0.0453 µM.

And the Kd [14, 24]?
The Kd was at least 22.9 µM.

What does the source list for TRAADEPPL?
IC50 [15]: ≥ 1400 µM; IC50 [2, 31]: ≥ 169 µM

With VEDEEFWKL as the sequence, how does the Kd ([13]; source organism: Dengue virus 3 Sri Lanka/1266/2000) read?
The Kd was 0.0181 µM.

How did the Kd [13, 26] turn out when VERAVLDDGI was run?
The Kd was 1.68 µM.

How did the Kd [11, 26] turn out when VPFCSHHFHQ was run?
The Kd was at least 20.9 µM.

And the Kd [14, 26]?
Its Kd is at least 69.6 µM.

What does the source list for VPVHLCNLI?
Kd [3, 32]: ≥ 78.1 µM; Kd [4, 32]: 3.17 µM; Kd [5, 32]: 5.7 µM; Kd [6, 32]: ≥ 77.9 µM; Kd [7, 32]: ≥ 78.9 µM; Kd [8, 32]: ≥ 47.9 µM

Which results are given for VVLQQHSIAY?
Kd [3, 33]: ≥ 70.4 µM; Kd [16]: 2.34 µM; Kd [17]: 1.64 µM; Kd [4, 33]: ≥ 25.9 µM; Kd [5, 33]: ≥ 39.9 µM; Kd [6, 33]: ≥ 69.7 µM; Kd [7, 33]: 1.04 µM; Kd [8, 33]: 5.39 µM; Kd [18]: ≥ 70 µM; Kd [19]: ≥ 70 µM; Kd [20]: ≥ 24.9 µM

What does the source list for VYFESFVREF?
Kd [4, 34]: 0.00889 µM; Kd [5, 34]: 0.0597 µM; Kd [7, 34]: 0.184 µM

For WEGSPGKFW, which Kd [9, 26] is on record?
The Kd was 0.0244 µM.

And the Kd [10, 26]?
Its Kd is 0.0535 µM.

What does the source list for WYMWLGARFL?
Kd [4, 27]: 0.0491 µM; Kd [5, 27]: 0.00633 µM

How did the Kd [3, 34] turn out when YCNYSKFWY was run?
Its Kd is at least 21.2 µM.

And the Kd [4, 34]?
Its Kd is 14.6 µM.

And the Kd [5, 34]?
The Kd was at least 23.5 µM.

What about the Kd [6, 34] of the same sequence?
Its Kd is at least 77.9 µM.

And the Kd [7, 34]?
Its Kd is 1.03 µM.

And the Kd [8, 34]?
Its Kd is 1.29 µM.

How did the Kd [9, 26] turn out when YENLKYSVI was run?
Its Kd is 0.0902 µM.

For YFPREGVFVF, which Kd [3, 22] is on record?
Its Kd is at least 70.4 µM.

And the Kd [4, 22]?
Its Kd is 0.00575 µM.

What about the Kd [5, 22] of the same sequence?
The Kd was 0.00735 µM.

And the Kd [6, 22]?
The Kd was 17.2 µM.

And the Kd [7, 22]?
Its Kd is 0.00723 µM.

What about the Kd [8, 22] of the same sequence?
The Kd was at least 78.9 µM.

With YLLFGIKCI as the sequence, how does the IC50 [2, 31] read?
Its IC50 is 7.15 µM.

With YPALMPLY as the sequence, how does the Kd ([11]; source organism: Hepatitis B virus) read?
The Kd was at least 10 µM.

With YSQIGAGVY as the sequence, how does the Kd [3, 27] read?
The Kd was 0.0634 µM.

What about the Kd [8, 27] of the same sequence?
The Kd was 0.00203 µM.

What about the Kd [12, 27] of the same sequence?
The Kd was 0.0156 µM.

How did the Kd [4, 35] turn out when YYGLVTEQF was run?
Its Kd is 0.00147 µM.

And the Kd [5, 35]?
Its Kd is 0.00327 µM.

What about the Kd [7, 35] of the same sequence?
Its Kd is 0.0955 µM.
